From the supplement of paper PMC7125110
± gives the standard error. For some assays here: Fewer inactive variants are shown than the library holds.

B1: glmS ribozyme (parent)
chain: AUAAAAGCGCCAGAACUACAGAAAUGUAGUUGACGAGGAGGAGGUUUAUCGAAUUUUCGGCGGAUGCCUCCAAA

Columns and labels:
Details in all cases: with glucosamine-6-phosphate
[1] = variants of: B1; assay: kcat; higher = faster cleavage; RNA array
In short: (§1)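 On sequenced MiSeq chips, barcoded ribozyme variants were made in situ by E. coli RNA polymerase and followed at 37 °C through a hybridised Cy3 probe. Glucosamine-6-phosphate was flowed in at 40 μM to 10 mM in HEPES/KCl/Mg(OAc)2 buffer. Exponential fits to normalised per-tile medians gave kobs, and weighted Michaelis–Menten fits gave kcat and KM.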

[2] = variants of: B1; assay: self-cleavage kobs at 40 uM GlcN6P; higher = faster cleavage; RNA array
In short: as §1

[3] = variants of: B1; assay: self-cleavage kobs at 160 uM GlcN6P; higher = faster cleavage; RNA array
In short: as §1

[4] = variants of: B1; assay: self-cleavage kobs at 640 uM GlcN6P; higher = faster cleavage; RNA array
In short: as §1

[5] = variants of: B1; assay: self-cleavage kobs at 2500 uM GlcN6P; higher = faster cleavage; RNA array
In short: as §1

[6] = variants of: B1; assay: KM; higher = weaker cofactor use; RNA array
In short: as §1

[7] = variants of: B1; assay: self-cleavage kobs at 10000 uM GlcN6P; higher = faster cleavage; RNA array
In short: as §1

G38U U54C
kcat [1]: < 1e-05 s⁻¹
self-cleavage kobs at 40 uM GlcN6P [2]: < 1e-05 s⁻¹
self-cleavage kobs at 160 uM GlcN6P [3]: < 1e-05 s⁻¹
self-cleavage kobs at 640 uM GlcN6P [4]: < 1e-05 s⁻¹

G37C G66A
kcat [1]: 3.43e-05 ± 7.8e-06 s⁻¹
self-cleavage kobs at 40 uM GlcN6P [2]: < 1e-05 s⁻¹
self-cleavage kobs at 2500 uM GlcN6P [5]: 3.43e-05 ± 1.5e-05 s⁻¹

A39C U57C
kcat [1]: 1.89e-05 ± 2.4e-06 s⁻¹
self-cleavage kobs at 2500 uM GlcN6P [5]: 1.97e-05 ± 9.4e-06 s⁻¹

A39G A52G
kcat [1]: 0.00286 ± 0.00015 s⁻¹
KM [6]: 3960 ± 330 µM
self-cleavage kobs at 160 uM GlcN6P [3]: 0.000117 ± 3.5e-05 s⁻¹
self-cleavage kobs at 640 uM GlcN6P [4]: 0.000407 ± 8.1e-05 s⁻¹
self-cleavage kobs at 2500 uM GlcN6P [5]: 0.00108 ± 0.0003 s⁻¹
self-cleavage kobs at 10000 uM GlcN6P [7]: 0.00205 ± 0.00028 s⁻¹

G38A C58U C68G
kcat [1]: 4.92e-05 ± 1.7e-05 s⁻¹
self-cleavage kobs at 640 uM GlcN6P [4]: 5.5e-05 ± 2.5e-05 s⁻¹
self-cleavage kobs at 2500 uM GlcN6P [5]: 6.16e-05 ± 2.5e-05 s⁻¹

G38A C71U
kcat [1]: < 1e-05 s⁻¹

G38U A64U
kcat [1]: < 1e-05 s⁻¹
self-cleavage kobs at 40 uM GlcN6P [2]: < 1e-05 s⁻¹
self-cleavage kobs at 640 uM GlcN6P [4]: < 1e-05 s⁻¹
self-cleavage kobs at 2500 uM GlcN6P [5]: < 1e-05 s⁻¹

G40A C70A
kcat [1]: 0.000241 ± 1.6e-05 s⁻¹
KM [6]: 350 ± 60 µM
self-cleavage kobs at 40 uM GlcN6P [2]: 2.59e-05 ± 1.2e-05 s⁻¹
self-cleavage kobs at 160 uM GlcN6P [3]: 6.86e-05 ± 1.9e-05 s⁻¹
self-cleavage kobs at 640 uM GlcN6P [4]: 0.000163 ± 2.5e-05 s⁻¹
self-cleavage kobs at 2500 uM GlcN6P [5]: 0.000235 ± 4.9e-05 s⁻¹
self-cleavage kobs at 10000 uM GlcN6P [7]: 0.000217 ± 3.8e-05 s⁻¹

G37C A64G
kcat [1]: 9.23e-05 ± 9.1e-06 s⁻¹
KM [6]: 2450 ± 790 µM
self-cleavage kobs at 2500 uM GlcN6P [5]: 4.35e-05 ± 9.1e-06 s⁻¹
self-cleavage kobs at 10000 uM GlcN6P [7]: 7.49e-05 ± 8e-06 s⁻¹

G37A G38U
kcat [1]: < 1e-05 s⁻¹
self-cleavage kobs at 160 uM GlcN6P [3]: < 1e-05 s⁻¹

G38A U49A C58U
kcat [1]: 2.37e-05 ± 3.2e-06 s⁻¹
KM [6]: 862 ± 380 µM

A39G A48C
kcat [1]: 0.000798 ± 0.00012 s⁻¹
KM [6]: 2140 ± 600 µM
self-cleavage kobs at 640 uM GlcN6P [4]: 0.000196 ± 3.4e-05 s⁻¹
self-cleavage kobs at 2500 uM GlcN6P [5]: 0.000468 ± 9e-05 s⁻¹
self-cleavage kobs at 10000 uM GlcN6P [7]: 0.00063 ± 0.0001 s⁻¹

A39G A48U
kcat [1]: 0.00118 ± 0.00016 s⁻¹
KM [6]: 5000 ± 1200 µM
self-cleavage kobs at 640 uM GlcN6P [4]: 0.000139 ± 3.1e-05 s⁻¹
self-cleavage kobs at 2500 uM GlcN6P [5]: 0.000436 ± 8.7e-05 s⁻¹
self-cleavage kobs at 10000 uM GlcN6P [7]: 0.000774 ± 0.00011 s⁻¹

G37A G62A
kcat [1]: < 1e-05 s⁻¹
self-cleavage kobs at 40 uM GlcN6P [2]: < 1e-05 s⁻¹
self-cleavage kobs at 640 uM GlcN6P [4]: < 1e-05 s⁻¹
self-cleavage kobs at 10000 uM GlcN6P [7]: < 1e-05 s⁻¹

G38A U54G
kcat [1]: < 1e-05 s⁻¹
self-cleavage kobs at 40 uM GlcN6P [2]: < 1e-05 s⁻¹

G40C C70U C71G
kcat [1]: 0.00208 ± 0.00091 s⁻¹
self-cleavage kobs at 40 uM GlcN6P [2]: 0.000192 ± 2.7e-05 s⁻¹
self-cleavage kobs at 160 uM GlcN6P [3]: 0.000296 ± 8.3e-05 s⁻¹
self-cleavage kobs at 640 uM GlcN6P [4]: 0.000624 ± 0.00016 s⁻¹
self-cleavage kobs at 2500 uM GlcN6P [5]: 0.00208 ± 0.00051 s⁻¹
self-cleavage kobs at 10000 uM GlcN6P [7]: 0.00243 ± 0.00039 s⁻¹

G38C G66C C70U
kcat [1]: 1.23e-05 ± 9.7e-07 s⁻¹
self-cleavage kobs at 640 uM GlcN6P [4]: < 1e-05 s⁻¹

A39U A42C
kcat [1]: 0.000556 ± 3.1e-05 s⁻¹
KM [6]: 3030 ± 290 µM
self-cleavage kobs at 160 uM GlcN6P [3]: 2.58e-05 ± 7.6e-06 s⁻¹
self-cleavage kobs at 640 uM GlcN6P [4]: 9.53e-05 ± 1.1e-05 s⁻¹
self-cleavage kobs at 2500 uM GlcN6P [5]: 0.000273 ± 3.6e-05 s⁻¹
self-cleavage kobs at 10000 uM GlcN6P [7]: 0.000419 ± 3.9e-05 s⁻¹

A39U A42G
kcat [1]: 0.0208 ± 0.0077 s⁻¹
KM [6]: 1440 ± 690 µM
self-cleavage kobs at 40 uM GlcN6P [2]: 0.000671 ± 0.00011 s⁻¹
self-cleavage kobs at 160 uM GlcN6P [3]: 0.00186 ± 0.00055 s⁻¹
self-cleavage kobs at 640 uM GlcN6P [4]: 0.0052 ± 0.0011 s⁻¹
self-cleavage kobs at 2500 uM GlcN6P [5]: 0.0216 ± 0.0065 s⁻¹
self-cleavage kobs at 10000 uM GlcN6P [7]: 0.019 ± 0.006 s⁻¹

G37U C70U C71U
kcat [1]: 1.13e-05 ± 3.2e-06 s⁻¹

G37C A53U
kcat [1]: 2.09e-05 ± 2.3e-06 s⁻¹
self-cleavage kobs at 40 uM GlcN6P [2]: < 1e-05 s⁻¹
self-cleavage kobs at 2500 uM GlcN6P [5]: 2.18e-05 ± 9.8e-06 s⁻¹
self-cleavage kobs at 10000 uM GlcN6P [7]: 1.92e-05 ± 8.5e-06 s⁻¹

A39C A42G
kcat [1]: 0.00493 ± 0.0008 s⁻¹
KM [6]: 1490 ± 310 µM
self-cleavage kobs at 40 uM GlcN6P [2]: 0.000141 ± 1.4e-05 s⁻¹
self-cleavage kobs at 160 uM GlcN6P [3]: 0.000376 ± 7.6e-05 s⁻¹
self-cleavage kobs at 640 uM GlcN6P [4]: 0.00152 ± 0.00029 s⁻¹
self-cleavage kobs at 2500 uM GlcN6P [5]: 0.00282 ± 0.00046 s⁻¹
self-cleavage kobs at 10000 uM GlcN6P [7]: 0.0047 ± 0.00074 s⁻¹

A39C A42C
kcat [1]: 6.31e-05 ± 3.9e-06 s⁻¹
KM [6]: 890 ± 270 µM
self-cleavage kobs at 640 uM GlcN6P [4]: 3.24e-05 ± 1.5e-05 s⁻¹
self-cleavage kobs at 2500 uM GlcN6P [5]: 4.41e-05 ± 9.6e-06 s⁻¹
self-cleavage kobs at 10000 uM GlcN6P [7]: 5.88e-05 ± 8.3e-06 s⁻¹

G38A A52U
kcat [1]: < 1e-05 s⁻¹
self-cleavage kobs at 10000 uM GlcN6P [7]: < 1e-05 s⁻¹

G38A C61A G66U U69C C70U
kcat [1]: 4.44e-05 ± 6.1e-06 s⁻¹

G40A A52G
kcat [1]: 0.000342 ± 4.4e-05 s⁻¹
KM [6]: 1490 ± 450 µM
self-cleavage kobs at 640 uM GlcN6P [4]: 0.000102 ± 1.6e-05 s⁻¹
self-cleavage kobs at 2500 uM GlcN6P [5]: 0.000251 ± 2.8e-05 s⁻¹
self-cleavage kobs at 10000 uM GlcN6P [7]: 0.000277 ± 3e-05 s⁻¹

G40C G66A
kcat [1]: 0.00247 ± 0.00097 s⁻¹
self-cleavage kobs at 40 uM GlcN6P [2]: 9.75e-05 ± 2.1e-05 s⁻¹
self-cleavage kobs at 160 uM GlcN6P [3]: 0.000162 ± 4.5e-05 s⁻¹
self-cleavage kobs at 640 uM GlcN6P [4]: 0.00111 ± 0.0003 s⁻¹
self-cleavage kobs at 2500 uM GlcN6P [5]: 0.00108 ± 0.00021 s⁻¹
self-cleavage kobs at 10000 uM GlcN6P [7]: 0.00269 ± 0.0004 s⁻¹

G37A U54A U65G
kcat [1]: 0.000309 ± 7.3e-05 s⁻¹
KM [6]: 5170 ± 1900 µM
self-cleavage kobs at 640 uM GlcN6P [4]: 4.03e-05 ± 1.2e-05 s⁻¹
self-cleavage kobs at 2500 uM GlcN6P [5]: 9.16e-05 ± 2e-05 s⁻¹
self-cleavage kobs at 10000 uM GlcN6P [7]: 0.000215 ± 5e-05 s⁻¹

A39U G66C C67A
kcat [1]: 0.000462 ± 8.7e-05 s⁻¹
KM [6]: 1570 ± 490 µM
self-cleavage kobs at 160 uM GlcN6P [3]: 4.03e-05 ± 1.3e-05 s⁻¹
self-cleavage kobs at 640 uM GlcN6P [4]: 0.00015 ± 3.2e-05 s⁻¹
self-cleavage kobs at 2500 uM GlcN6P [5]: 0.000248 ± 6.1e-05 s⁻¹
self-cleavage kobs at 10000 uM GlcN6P [7]: 0.000455 ± 0.00013 s⁻¹

G40C U56C
kcat [1]: 6.61e-05 ± 9.2e-06 s⁻¹
self-cleavage kobs at 40 uM GlcN6P [2]: < 1e-05 s⁻¹
self-cleavage kobs at 160 uM GlcN6P [3]: < 1e-05 s⁻¹
self-cleavage kobs at 2500 uM GlcN6P [5]: 4.67e-05 ± 2e-05 s⁻¹
self-cleavage kobs at 10000 uM GlcN6P [7]: 5.45e-05 ± 8.6e-06 s⁻¹

G40C U47G
kcat [1]: 0.000514 ± 9.8e-05 s⁻¹
KM [6]: 1190 ± 440 µM
self-cleavage kobs at 160 uM GlcN6P [3]: 7.96e-05 ± 1.8e-05 s⁻¹
self-cleavage kobs at 640 uM GlcN6P [4]: 0.000157 ± 2.4e-05 s⁻¹
self-cleavage kobs at 2500 uM GlcN6P [5]: 0.00041 ± 5.3e-05 s⁻¹
self-cleavage kobs at 10000 uM GlcN6P [7]: 0.000412 ± 7.9e-05 s⁻¹

G38A C70A
kcat [1]: < 1e-05 s⁻¹
self-cleavage kobs at 40 uM GlcN6P [2]: < 1e-05 s⁻¹

G38U G40A
kcat [1]: < 1e-05 s⁻¹

G38C A48G
kcat [1]: < 1e-05 s⁻¹
self-cleavage kobs at 640 uM GlcN6P [4]: < 1e-05 s⁻¹

G37U U65G
kcat [1]: < 1e-05 s⁻¹
KM [6]: 1260 ± 500 µM
self-cleavage kobs at 40 uM GlcN6P [2]: < 1e-05 s⁻¹
self-cleavage kobs at 160 uM GlcN6P [3]: < 1e-05 s⁻¹
self-cleavage kobs at 640 uM GlcN6P [4]: < 1e-05 s⁻¹

A39C U45C
kcat [1]: 0.000523 ± 3.8e-05 s⁻¹
KM [6]: 3080 ± 440 µM
self-cleavage kobs at 640 uM GlcN6P [4]: 9.68e-05 ± 1.7e-05 s⁻¹
self-cleavage kobs at 2500 uM GlcN6P [5]: 0.000214 ± 3.8e-05 s⁻¹
self-cleavage kobs at 10000 uM GlcN6P [7]: 0.000408 ± 4.5e-05 s⁻¹
